Measurements reported in article PMC3117843.

Legend:
[1] = biological target: HCV envelope glycoproteins E1 and E2 on HCV genotype 3a virus from patients' serum (Hepatitis C virus genotype 3a)
[2] = biological target: HCV envelope glycoproteins E1 and E2 of genotype 3a on HCV pseudoparticles (Hepatitis C virus genotype 3a)

B1: Galanthus nivalis agglutinin (natural protein)
chain: SCLSDNILYSGETLSTGEFLNYGSFVFIMQEDCNLVLYDVDKPIWATNTGGLSRSCFLSMQTDGNLVVYNPSNKPIWASNTGGQNGNYVCILQKDRNVVIYGTDRWATG
- infection of Huh-7 cells by HCV 3a virus pre-incubated with GNA, HCV RNA by quantitative RT-PCR, EC50 (Figure 4) [1]: 1 µg
- infection of Huh-7 cells by HCV 3a virus pre-incubated with GNA, HCV RNA by quantitative RT-PCR, EC90 (Figure 4) [1]: 5 µg
- inhibition of HCVpp entry into Huh-7 cells, concentration of GNA for 50% reduction (Figure 3a and 3b) [2]: 1 µg
